Earlier results, collected in patent US20100086958A1, “NOVEL ENZYME” (priority 2008, published 2010).
Residue numbers refer to the chain shown, from its start. Names and notes keep the numbering of the source. Like-named read-outs stand apart in the source and are kept apart here.

B1: WT_BstGAPDH: wild type glyceraldehydes-3-phosphate dehydrogenase from Bacillus stearothermophilus (protein, UniProt P00362 2-335, looked up)
Glyceraldehyde-3-phosphate …: AVKVGINGFGRIGRNVFRAALKNPDIEVVAVNDLTDANTLAHLLKYDSVHGRLDAEVSVNGNNLVVNGKEIIVKAERDPENLAWGEIGVDIVVESTGRFTKREDAAKHLEAGAKKVIISAPAKNEDITIVMGVNQDKYDPKAHHVISNASCTTNCLAPFAKVLHEQFGIVRGMMTTVHSYTNDQRILDLPHKDLRRARAAAESIIPTTTGAAKAVALVLPELKGKLNGMAMRVPTPNVSVVDLVAELEKEVTVEEVNAALKAAAEGELKGILAYSEEPLVSRDYNGSTVSSTIDALSTMVIDGKMVKVVSWYDNETGYSHRVVDLAAYIASKGL
B2: WT_SceADH: wild type ADH from Saccharomyces cerevisiae (protein, UniProt P00330 2-348, looked up)
Alcohol dehydrogenase 1: SIPETQKGVIFYESHGKLEYKDIPVPKPKANELLINVKYSGVCHTDLHAWHGDWPLPVKLPLVGGHEGAGVVVGMGENVKGWKIGDYAGIKWLNGSCMACEYCELGNESNCPHADLSGYTHDGSFQQYATADAVQAAHIPQGTDLAQVAPILCAGITVYKALKSANLMAGHWVAISGAAGGLGSLAVQYAKAMGYRVLGIDGGEGKEELFRSIGGEVFIDFTKEKDIVGAVLKATDGGAHGVINVSVSEAAIEASTRYVRANGTTVLVGMPAGAKCCSDVFNQVVKSISIVGSYVGNRADTREALDFFARGLVKSPIKVVGLSTLPEIYEKMEKGQIVGRYVVDTSK
B3: WT_17β-HSDHs: wild type human estrogenic 17β-hydroxysteroid dehydrogenase (protein, UniProt P14061 2-328, looked up)
17-beta-hydroxysteroid …: ARTVVLITGCSSGIGLHLAVRLASDPSQSFKVYATLRDLKTQGRLWEAARALACPPGSLETLQLDVRDSKSVAAARERVTEGRVDVLVCNAGLGLLGPLEALGEDAVASVLDVNVVGTVRMLQAFLPDMKRRGSGRVLVTGSVGGLMGLPFNDVYCASKFALEGLCESLAVLLLPFGVHLSLIECGPVHTAFMEKVLGSPEEVLDRTDIHTFHRFYQYLAHSKQVFREAAQNPEEVAEVFLTALRAPKPTLRYFTTERFLPLLRMRLDDPSGSNYVTAMHREVFGDVPAKAEAGAEAGGGAGPGAEDEAGRGAVGDPELGDPPAAPQ
B4: L36D 17β-HSDHs: L36D mutant of human estrogenic 17β-hydroxysteroid dehydrogenase (protein, UniProt P14061 2-328, looked up, variant L36D)
17-beta-hydroxysteroid …: B3 17-beta-hydroxysteroid … with L36D
B5: WT_PstXDH: wild type xylitol dehydrogenase from Pichia stipitis (protein, UniProt P22144 1-363, looked up)
D-xylulose reductase: MTANPSLVLNKIDDISFETYDAPEISEPTDVLVQVKKTGICGSDIHFYAHGRIGNFVLTKPMVLGHESAGTVVQVGKGVTSLKVGDNVAIEPGIPSRFSDEYKSGHYNLCPHMAFAATPNSKEGEPNPPGTLCKYFKSPEDFLVKLPDHVSLELGALVEPLSVGVHASKLGSVAFGDYVAVFGAGPVGLLAAAVAKTFGAKGVIVVDIFDNKLKMAKDIGAATHTFNSKTGGSEELIKAFGGNVPNVVLECTGAEPCIKLGVDAIAPGGRFVQVGNAAGPVSFPITVFAMKELTLFGSFRYGFNDYKTAVGIFDTNYQNGRENAPIDFEQLITHRYKFKDAIEAYDLVRAGKGAVKCLIDGPE
B6: WT_PstPTDH: wild type phosphate dehydrogenase from Pseudomonas stutzeri (protein, UniProt O69054 1-336, looked up)
Phosphonate dehydrogenase: MLPKLVITHRVHDEILQLLAPHCELMTNQTDSTLTREEILRRCRDAQAMMAFMPDRVDADFLQACPELRVVGCALKGFDNFDVDACTARGVWLTFVPDLLTVPTAELAIGLAVGLGRHLRAADAFVRSGEFQGWQPQFYGTGLDNATVGILGMGAIGLAMADRLQGWGATLQYHEAKALDTQTEQRLGLRQVACSELFASSDFILLALPLNADTQHLVNAELLALVRPGALLVNPCRGSVVDEAAVLAALERGQLGGYAADVFEMEDWARADRPRLIDPALLAHPNTLFTPHIGSAVRAVRLEIERCAAQNIIQVLAGARPINAANRLPKAEPAAC
B7: E175A PstPTDH: E175A mutant of phosphate dehydrogenase from Pseudomonas stutzeri (protein, UniProt O69054 1-336, looked up, variant E175A)
Phosphonate dehydrogenase: B6 Phosphonate dehydrogenase with E175A
B8: E175A/A176R PstPTDH: E175A/A176R mutant of phosphate dehydrogenase from Pseudomonas stutzeri (protein, UniProt O69054 1-336, looked up, variant E175A A176R)
Phosphonate dehydrogenase: B6 Phosphonate dehydrogenase with E175A, A176R
B9: A176R PstPTDH: A176R mutant of phosphate dehydrogenase from Pseudomonas stutzeri (protein, UniProt O69054 1-336, looked up, variant A176R)
Phosphonate dehydrogenase: B6 Phosphonate dehydrogenase with A176R
B10: WT_DroADH: wild type ADH from Drosophila (protein, UniProt P00334 2-256, looked up)
Alcohol dehydrogenase: SFTLTNKNVIFVAGLGGIGLDTSKELLKRDLKNLVILDRIENPAAIAELKAINPKVTVTFYPYDVTVPIAETTKLLKTIFAQLKTVDVLINGAGILDDHQIERTIAVNYTGLVNTTTAILDFWDKRKGGPGGIICNIGSVTGFNAIYQVPVYSGTKAAVVNFTSSLAKLAPITGVTAYTVNPGITRTTLVHKFNSWLDVEPQVAEKLLAHPTQPSLACAENFVKAIELNQNGAIWKLDLGTLEAIQWTKHWDSGI
B11: A46R DroADH: A46R mutant of ADH from Drosophila (protein, UniProt P00334 2-256, looked up, variant A46R)
Alcohol dehydrogenase: B10 Alcohol dehydrogenase with A45R

Legend:
[1] = literature, cited from earlier work; for Km: read-out: Km NAD^+
[2] = literature, cited from earlier work; for Km: read-out: Km NADP^+
[3] = ADHs (DroADH, SceADH), AlaDHs, GAPDH

Row | Molecule | kcat NAD^+ [1, 3] | Km [1, 3] | kcat NADP^+ ([2]; PTDH) | Km ([2]; PTDH) | kcat NAD^+ ([1]; PTDH) | Km ([1]; PTDH) | other results
1 | B1 | 280 s⁻¹ | 150 µM |  |  |  |  | 
2 | B2 | 360 s⁻¹ | 160 µM |  |  |  |  | 
3 | B3 |  |  |  |  |  |  | kcat NADP^+ ([2]; 17β-HSDHs): 4.2 ± 0.2 s⁻¹; kcat NAD^+ ([1]; 17β-HSDHs): 7.5 ± 0.1 s⁻¹; Km ([1]; 17β-HSDHs): 11.8 ± 0.8 µM
4 | B4 |  |  |  |  |  |  | kcat NADP^+ ([2]; 17β-HSDHs): 16.7 ± 2.2 s⁻¹; kcat NAD^+ ([1]; 17β-HSDHs): 13.9 ± 0.8 s⁻¹; Km ([1]; 17β-HSDHs): 83 ± 5 µM
5 | B5 |  |  |  |  |  |  | kcat NADP^+ ([2]; ADHs (KlADH III), G6PDHs, XDHs): 1.83 ± 0.167 s⁻¹; kcat NAD^+ ([1]; ADHs (KlADH III), G6PDHs, XDHs): 17.5 ± 0.5 s⁻¹; Km ([1]; ADHs (KlADH III), G6PDHs, XDHs): 381 ± 30 µM
6 | B6 |  |  | 1.41 ± 0.0083 s⁻¹ | 2510 ± 410 µM | 2.93 ± 0.14 s⁻¹ | 53 ± 9 µM | 
7 | B7 |  |  | 2.18 ± 0.0067 s⁻¹ | 144 ± 14 µM | 3.5 ± 0.005 s⁻¹ | 16 ± 0.8 µM | 
8 | B8 |  |  | 1.9 ± 0.0083 s⁻¹ | 3.5 ± 0.5 µM | 3.94 ± 0.0083 s⁻¹ | 20 ± 1.3 µM | 
9 | B9 |  |  | 2.18 ± 0.0067 s⁻¹ | 77 ± 8.4 µM | 4.28 ± 0.0083 s⁻¹ | 60 ± 7 µM | 
10 | B10 | 10.2 s⁻¹ | 48 ± 1 µM |  |  |  |  | kcat NADP^+ [2, 3]: 0.715 s⁻¹; Km [2, 3]: 3090 ± 700 µM
11 | B11 | 7.3 s⁻¹ | 57 ± 3 µM |  |  |  |  | kcat NADP^+ [2, 3]: 1.9 s⁻¹; Km [2, 3]: 1270 ± 100 µM
